Experiments:
Format in all cases: biochemical, human
[1] = substrate: COc1ccc(C=O)c2ccccc12; assay: Kinetics of enzymatic reduction of methoxynaphthaldehydes by β1γ1 ADH; conditions: other: pH 7.0, 50 μM NADH, fluorometric, 25.0 °C
[2] = substrate: COc1ccc2cc(C=O)ccc2c1; assay: as above; conditions: other: pH 7.0, 50 μM NADH, fluorometric, 25.0 °C
[3] = substrate: COc1ccc(C=O)c2ccccc12; assay: Kinetics of enzymatic reduction of methoxynaphthaldehydes by Class II ADH; conditions: 25.0 °C
[4] = substrate: COc1ccc2cc(C=O)ccc2c1; assay: as above; conditions: other: pH 7.0, 50 μM NADH; spectrophotometric; pH 7.0; 25.0 °C
[5] = substrate: COc1ccc(C=O)c2ccccc12; assay: Kinetics of enzymatic reduction of methoxynaphthaldehydes by αβ1 ADH; conditions: other: pH 7.0, 50 μM NADH, spectrophotometric, 25.0 °C
Method: (§1) Standard assays for ethanol oxidation activity (Dalziel, 1957, Acta Chem Scand 11:1706-23) were carried out on a Cary 219 spectrophotometer interfaced with an Apple IIe microcomputer, using software provided by Varian Associates. The reaction mixture contained 2.5 mM NAD^+ in 0.1M glycine-NaOH buffer. pH 10.0, and 33 mM or 0.2M ethanol for Class I and Class II ADH, respectively.
(§2) Aldehyde reduction was monitored by following the decrease of absorption at 340 nm in 40 mM Mes buffer, pH 7.1. in the presence of saturating NADH, 50 μM for Class I and 100 μM for Class II. […] Initial reaction rates were measured and kinetic parameters determined by conventional procedures as described by Segel, 1975, Enzyme Kinetics, pp. 591-597, Wiley, N.Y.
(§3) All reaction mixtures (3 ml total volume) were prepared directly in 1 cm pathlength, 4 ml fluorometric cuvettes by adding 150 μl of the 300 μM substrate solution (e.g substrate IA or IIA) 100 μl of the 1 mM NADH solution (prepared as in part 5 above) and 2.69 ml of assay buffer (0.1M phosphate, pH 7.6). After thermal equilibration (25° C.) for 5 minutes, 60 μl of isozyme sample (either serum or purified ADH isozymes) was added to the cuvette.
(§4) The linear increase of fluorescence was then recorded for 1-10 minutes, until 0.03-1 μM of substrate was consumed. Larger substrate consumption was not found to be desirable (described in subpart (c) below). After this period the instrument sensitivity setting was reduced 10-30 fold, the signal compensated once again by zero suppression (see part 6 above), and 60 μl of 200-400 μM product (e.g., product IB or IIB) was added to provide an internal standard. The added product fluorescence intensity was then measured Fluorescence measurements were optimized for samples with low activity (<1 nM/minute). […] Rates measured in the presence of the 0.2 mM ADH inhibitors. […]
(§5) The rates of aldehyde reduction, determined as initial velocities (V) and expressed in units of nM/minute, were calculated according to: [formula] where the quantity in parentheses is the slope of the linear fluorescence increase calculated from the quantities Ft and FO, the fluorescence at time t and at the beginning of the reaction, respectively. Cst is the concentration of the product used as a standard added to the cuvette after the initial rate had been measured and Fst is the fluorescence intensity of the added product
(§6) Additionally the reaction rates for these isozymes were compared to those measured by the standard assay for ethanol oxidation (see part 7 above) at pH 10.0 the optimum for oxidation of ethanol by ADH. The rate of IA reduction for all Class I isozymes except the β1 β1 form is 1.5- to 4-fold faster than that of ethanol oxidation as measured by the conventional ethanol oxidation assay. […]

[6] = substrate: COc1ccc2cc(C=O)ccc2c1; assay: as above; conditions: other: pH 7.0, 50 μM NADH, spectrophotometric, 25.0 °C
Method: as §1, §2, §3, §4, §5, §6

[7] = substrate: COc1ccc(C=O)c2ccccc12; assay: Kinetics of enzymatic reduction of methoxynaphthaldehydes by αγ1 ADH; conditions: other: pH 7.0, 50 μM NADH, fluorometric, 25.0 °C
[8] = substrate: COc1ccc2cc(C=O)ccc2c1; assay: as above; conditions: other: pH 7.0, 50 μM NADH, fluorometric, 25.0 °C
[9] = substrate: COc1ccc(C=O)c2ccccc12; assay: Kinetics of enzymatic reduction of methoxynaphthaldehydes by γ1γ1 ADH; conditions: other: pH 7.0, 50 μM NADH, fluorometric, 25.0 °C
[10] = substrate: COc1ccc2cc(C=O)ccc2c1; assay: as above; conditions: other: pH 7.0, 50 μM NADH, fluorometric, 25.0 °C
[11] = substrate: COc1ccc2cc(C=O)ccc2c1; assay: Kinetics of enzymatic reduction of methoxynaphthaldehydes by Class III ADH; conditions: other: pH 7.0, 50 μM NADH, 25.0 °C
[12] = other: pH 7.0, 50 μM NADH, spectrophotometric, pH 7.0

B1: β1 γ1 ADH (Class I) (Homo sapiens) (protein)
chain 1: MSTAGKVIKCKAAVLWEVKKPFSIEDVEVAPPKAYEVRIKMVAVGICHTDDHVVSGNLVTPLPVILGHEAAGIVESVGEGVTTVKPGDKVIPLFTPQCGKCRVCKNPESNYCLKNDLGNPRGTLQDGTRRFTCRGKPIHHFLGTSTFSQYTVVDENAVAKIDAASPLEKVCLIGCGFSTGYGSAVNVAKVTPGSTCAVFGLGGVGLSAVMGCKAAGAARIIAVDINKDKFAKAKELGATECINPQDYKKPIQEVLKEMTDGGVDFSFEVIGRLDTMMASLLCCHEACGTSVIVGVPPASQNLSINPMLLLTGRTWKGAVYGGFKSKEGIPKLVADFMAKKFSLDALITHVLPFEKINEGFDLLHSGKSIRTVLTF
chain 2: MSTAGKVIKCKAAVLWELKKPFSIEEVEVAPPKAHEVRIKMVAAGICRSDEHVVSGNLVTPLPVILGHEAAGIVESVGEGVTTVKPGDKVIPLFTPQCGKCRICKNPESNYCLKNDLGNPRGTLQDGTRRFTCSGKPIHHFVGVSTFSQYTVVDENAVAKIDAASPLEKVCLIGCGFSTGYGSAVKVAKVTPGSTCAVFGLGGVGLSVVMGCKAAGAARIIAVDINKDKFAKAKELGATECINPQDYKKPIQEVLKEMTDGGVDFSFEVIGRLDTMMASLLCCHEACGTSVIVGVPPDSQNLSINPMLLLTGRTWKGAIFGGFKSKESVPKLVADFMAKKFSLDALITNILPFEKINEGFDLLRSGKSIRTVLTF
notes: beta1 (ADH1B*1) and gamma1 (ADH1C*1) alleles
Q: How did the Km [1] turn out when B1 was run?
A: Its Km is 0.60 µM.

Q: What about the kcat [1] of the same protein?
A: The kcat was 265 min⁻¹.

Q: And the Km [2]?
A: Its Km is 0.40 µM.

Q: And the kcat [2]?
A: The kcat was 170 min⁻¹.

B2: Class II (π) ADH (Homo sapiens) (protein)
chain: MGTKGKVIKCKAAIAWEAGKPLCIEEVEVAPPKAHEVRIQIIATSLCHTDATVIDSKFEGLAFPVIVGHEAAGIVESIGPGVTNVKPGDKVIPLYAPLCRKCKFCLSPLTNLCGKISNLKSPASDQQLMEDKTSRFTCKGKPVYHFFGTSTFSQYTVVSDINLAKIDDDANLERVCLLGCGFSTGYGAAINNAKVTPGSTCAVFGLGGVGLSAVMGCKAAGASRIIGIDINSEKFVKAKALGATDCLNPRDLHKPIQEVIIELTKGGVDFALDCAGGSETMKAALDCTTAGWGSCTFIGVAAGSKGLTIFPEELIIGRTINGTFFGGWKSVDSIPKLVTDYKNKKFNLDALVTHTLPFDKISEAFDLMNQGKSVRTILIF
Q: For B2, which kcat ([3]; other: Class II) is on record?
A: Its kcat is 40 min⁻¹.

Q: What about the Km [3, 12] of the same protein?
A: Its Km is 20.0 µM.

Q: And the kcat [3, 12]?
A: Its kcat is 50 min⁻¹.

Q: And the Km [4]?
A: The Km was 2.6 µM.

Q: What about the kcat [4] of the same protein?
A: The kcat was 1500 min⁻¹.

B3: αβ1 ADH (Class I) (Homo sapiens) (protein)
chain 1: STAGKVIKCKAAVLWELKKPFSIEEVEVAPPKAHEVRIKMVAVGICGTDDHVVSGTMVTPLPVILGHEAAGIVESVGEGVTTVKPGDKVIPLAIPQCGKCRICKNPESNYCLKNDVSNPQGTLQDGTSRFTCRRKPIHHFLGISTFSQYTVVDENAVAKIDAASPLEKVCLIGCGFSTGYGSAVNVAKVTPGSTCAVFGLGGVGLSAIMGCKAAGAARIIAVDINKDKFAKAKELGATECINPQDYKKPIQEVLKEMTDGGVDFSFEVIGRLDTMMASLLCCHEACGTSVIVGVPPDSQNLSMNPMLLLTGRTWKGAILGGFKSKECVPKLVADFMAKKFSLDALITHVLPFEKINEGFDLLHSGKSIRTILMF
chain 2: STAGKVIKCKAAVLWEVKKPFSIEDVEVAPPKAYEVRIKMVAVGICHTDDHVVSGNLVTPLPVILGHEAAGIVESVGEGVTTVKPGDKVIPLFTPQCGKCRVCKNPESNYCLKNDLGNPRGTLQDGTRRFTCRGKPIHHFLGTSTFSQYTVVDENAVAKIDAASPLEKVCLIGCGFSTGYGSAVNVAKVTPGSTCAVFGLGGVGLSAVMGCKAAGAARIIAVDINKDKFAKAKELGATECINPQDYKKPIQEVLKEMTDGGVDFSFEVIGRLDTMMASLLCCHEACGTSVIVGVPPASQNLSINPMLLLTGRTWKGAVYGGFKSKEGIPKLVADFMAKKFSLDALITHVLPFEKINEGFDLLHSGKSIRTVLTF
notes: beta1 allele (ADH1B*1, Arg47 and Arg369 in mature count)
Q: Which Km [5] does the source give for B3 here?
A: Its Km is 8.5 µM.

Q: And the kcat [5]?
A: The kcat was 450 min⁻¹.

Q: What about the Km [6] of the same protein?
A: Its Km is 11.5 µM.

Q: And the kcat [6]?
A: Its kcat is 160 min⁻¹.

B4: αγ1 ADH (Class I) (Homo sapiens) (protein)
chain 1: B3 chain 1
chain 2: STAGKVIKCKAAVLWELKKPFSIEEVEVAPPKAHEVRIKMVAAGICRSDEHVVSGNLVTPLPVILGHEAAGIVESVGEGVTTVKPGDKVIPLFTPQCGKCRICKNPESNYCLKNDLGNPRGTLQDGTRRFTCSGKPIHHFVGVSTFSQYTVVDENAVAKIDAASPLEKVCLIGCGFSTGYGSAVKVAKVTPGSTCAVFGLGGVGLSVVMGCKAAGAARIIAVDINKDKFAKAKELGATECINPQDYKKPIQEVLKEMTDGGVDFSFEVIGRLDTMMASLLCCHEACGTSVIVGVPPDSQNLSINPMLLLTGRTWKGAIFGGFKSKESVPKLVADFMAKKFSLDALITNILPFEKINEGFDLLRSGKSIRTVLTF
notes: gamma1 allele (ADH1C*1, Arg271 and Ile349 in mature count)
Q: With B4 as the protein, how does the Km [7] read?
A: The Km was 2.8 µM.

Q: What about the kcat [7] of the same protein?
A: The kcat was 500 min⁻¹.

Q: What about the Km [8] of the same protein?
A: The Km was 0.58 µM.

Q: What about the kcat [8] of the same protein?
A: The kcat was 150 min⁻¹.

B5: γ1 γ1 ADH (Class I) (Homo sapiens) (protein)
chain: B4 chain 2
notes: as for B4
Q: B5 was tested. Which Km [9] did it give?
A: The Km was 2.30 µM.

Q: What about the kcat [9] of the same protein?
A: Its kcat is 610 min⁻¹.

Q: And the Km [10]?
A: Its Km is 0.35 µM.

Q: And the kcat [10]?
A: Its kcat is 110 min⁻¹.

B6: Class III (.chi.) ADH (Homo sapiens) (protein)
chain: MANEVIKCKAAVAWEAGKPLSIEEIEVAPPKAHEVRIKIIATAVCHTDAYTLSGADPEGCFPVILGHEGAGIVESVGEGVTKLKAGDTVIPLYIPQCGECKFCLNPKTNLCQKIRVTQGKGLMPDGTSRFTCKGKTILHYMGTSTFSEYTVVADISVAKIDPLAPLDKVCLLGCGISTGYGAAVNTAKLEPGSVCAVFGLGGVGLAVIMGCKVAGASRIIGVDINKDKFARAKEFGATECINPQDFSKPIQEVLIEMTDGGVDYSFECIGNVKVMRAALEACHKGWGVSVVVGVAASGEEIATRPFQLVTGRTWKGTAFGGWKSVESVPKLVSEYMSKKIKVDEFVTHNLSFDEINKAFELMHSGKSIRTVVKI
Q: B6 was tested. Which kcat/Km [11] did it give?
A: The kcat/Km was 50000 min⁻¹ M⁻¹.

Reference: US5162203A, “Methods of measuring isozymes and isozyme classes of alcohol dehydrogenase” (President and Fellows of Harvard College, priority 1989, dated 1992)
